Results taken from US20250057927A1, “ALPHA-1 A[…] FROM YEAST FOR USE IN THE TREATMENT OF VIRAL INFECTIONS” (priority 2021, published 2025).

Test system: lentiviral pseudoparticles harbouring the SARS-CoV-2 spike protein of Wuhan Hu-1 isolate
Type: cell-based

Row | Molecule | IC50 of inhibiting pseudoparticle entry into Caco2 cells [µg/mL] | estimated IC90 [µg/mL] | pseudoparticle entry | inhibition of pseudoparticle entry compared to Prolastin | inhibition of the entry of SARS-CoV-2 | activity in the pseudoparticle assay compared to Prolastin | inhibition of pseudoparticle entry
1 | Prolastin | 3160 | 20000 | about 10% | – | – | – | –
2 | rec α1AT Fraction 52 (protein) EDPQGDAAQKTDTSHHDQDHPTFNKITPNLAEFAFSLYRQLAHQSNSTNIFFSPVSIATAFAMLSLGTKADTHDEILEGLNFNLTEIPEAQIHEGFQELLRTLNQPDSQLQLTTGNGLFLSEGLKLVDKFLEDVKKLYHSEAFTVNFGDTEEAKKQINDYVEKGTQGKIVDLVKELDRDTVFALVNYIFFKGKWERPFEVKDATEEEDFHVDQVTTVKVPMMKRLGMFNIQHCKKLSSWVLLMKYLGNATAIFFLPDEGKLQHLENELTHDIITKFLENEDRRSASLHLPKLSITGTYDLKSVLGQLGITKVFSNGADLSGVTEEAPLKLSKAVHKAVLTIDEKGTEAAGAMFLEAIPMSIPPEVKFNKPFVFLMIEQNTKSPLFMGKVVNPTQK | – | – | – | greater inhibition | inhibit the entry of SARS-CoV-2 similar to Prolastin | – | –
3 | rec α1AT Fraction 53 (protein) EDPQGDAAQKTDTSHHDQDHPTFNKITPNLAEFAFSLYRQLAHQSNSTNIFFSPVSIATAFAMLSLGTKADTHDEILEGLNFNLTEIPEAQIHEGFQELLRTLNQPDSQLQLTTGNGLFLSEGLKLVDKFLEDVKKLYHSEAFTVNFGDTEEAKKQINDYVEKGTQGKIVDLVKELDRDTVFALVNYIFFKGKWERPFEVKDATEEEDFHVDQVTTVKVPMMKRLGMFNIQHCKKLSSWVLLMKYLGNATAIFFLPDEGKLQHLENELTHDIITKFLENEDRRSASLHLPKLSITGTYDLKSVLGQLGITKVFSNGADLSGVTEEAPLKLSKAVHKAVLTIDEKGTEAAGAMFLEAIPMSIPPEVKFNKPFVFLMIEQNTKSPLFMGKVVNPTQK | – | – | – | greater inhibition | inhibit the entry of SARS-CoV-2 similar to Prolastin | greater activity | –
4 | rhAAT (protein) EDPQGDAAQKTDTSHHDQDHPTFNKITPNLAEFAFSLYRQLAHQSNSTNIFFSPVSIATAFAMLSLGTKADTHDEILEGLNFNLTEIPEAQIHEGFQELLRTLNQPDSQLQLTTGNGLFLSEGLKLVDKFLEDVKKLYHSEAFTVNFGDTEEAKKQINDYVEKGTQGKIVDLVKELDRDTVFALVNYIFFKGKWERPFEVKDATEEEDFHVDQVTTVKVPMMKRLGMFNIQHCKKLSSWVLLMKYLGNATAIFFLPDEGKLQHLENELTHDIITKFLENEDRRSASLHLPKLSITGTYDLKSVLGQLGITKVFSNGADLSGVTEEAPLKLSKAVHKAVLTIDEKGTEAAGAMFLEAIPMSIPPEVKFNKPFVFLMIEQNTKSPLFMGKVVNPTQK | – | 8000 | – | – | – | – | complete inhibition
